Experimental data published in patent US12012446B2, “Epstein-Barr virus antibodies and uses thereof” (priority 2017, dated 2024).

B1: HB20: murine anti-EBV gp350 mAb, IgG2a κ; SEQ ID NO: 128 / 129; neutralizing (antibody, V domains shown)
VH: ELVKPGASVKLSCKASGYTFTSYWIQWVKQRPGQGLEWIGEINPTNGHTNYNEKFKTKATLTVDKSSSTAYMRLSSLTSEDSAVYYCARNLYYYGRPDYWGQGTSVTVSSAKTTAPSVYPLAPVCGDTTGSSVTLG
VL: SSLSASLGDRVTISCRASQDIGNYLNWYQQKPDGTVKLLIYYTSRLHSGVPSRFSGSGSGTDYSLTISNLEQEDIATYFCQQGNALPPTFGGGTKLEIKRADAAPTV
modifications: heavy chain mAb HB20; light chain mAb HB20
notes: murine anti-EBV gp350 mAb, IgG2a κ; neutralizing
B2: HB5: murine anti-EBV gp350 mAb, IgG2a κ; SEQ ID NO: 108 / 109; neutralizing (antibody, V domains shown)
VH: AELVRPGASVKISCKAFGYTFTNHNINWVKQRPGQGLDWIGYINPYNDYTSYNQKFKGKATLTVDKSSNTAYMELSSLTSEDSAVYYCARSEGWLRRGAWFAYWGQGTLVTVSAAKTTAPSVYPLAPVCGDTTGSSVTLG
VL: AILSVSPGERVSFSCRASQSIGTSIHWYQQRTNDSPRLLIKYASESISGIPPRFSGSGSGTDFTLSINSVESEDIADYHCQQSNSWPMLTFGAGTKLELKRADAAPTV
modifications: heavy chain mAb HB5; light chain mAb HB5
notes: as for B1
B3: h72A1: humanized 72A1 IgG1; heavy and light chain SEQ ID NOs: 180 and 181 (antibody, V domains shown)
VH: EVQLVESGGGLVQPGGSLRLSCAASGSSFTDYTMNWMRQSPGKGLEWIGLINPYNGGTRYADSVKGRATLSLDKSKNTAYLQMNSLRAEDTAIYYCAGGLRRVNWFAYWGQGTLVTVSS
VL: DAQLTQSPILLSASVGDRVTITCRSSTGAVTTSNYANWVQERTNGSFRGLIGGTNNRVPGVPSRFSGSLSGDDATLTISSLQPEDEADYFCVLWHSNHWVFGAGTKVEIKR
B4: HB11: murine anti-EBV gp350 mAb, IgG1 κ; SEQ ID NO: 120 / 121; neutralizing (antibody, V domains shown)
VH: PSLVKPSQTLSLTCSVTGDSITSGFWNWIRKFPGNKLEYMGYISYSGSTYYNPSLKSRISITRDTSKNQYYLQLNSVTTEDTATYYCARGNGGNYDWYFDVWGAGTTVTVSSAKTTPPSVYPLAPGSAAQTNSMVTLG
VL: AIMSASLGEKVTMSCRASSSVNFMNWYQQKSDDSPKLLIYYISNLAPGVPARFSGSGSGNSYSLTISGMEGEDAATYYCQQFTSSPSWTFGGGTKLEIKRADAAPTV
modifications: heavy chain mAb HB11; light chain mAb HB11
notes: murine anti-EBV gp350 mAb, IgG1 κ; neutralizing
B5: m72A1: EBV anti-gp350 neutralizing mouse antibody purified from HB168 hybridoma (ATCC); SEQ ID NO: 100 / 101 (antibody, V domains shown)
VH: PELVKPGTSMKISCKASGSSFTDYTMNWMKQSHGKNLEWIGLINPYNGGTRYNQKFKGKATLTLDKSSSTAYMEVLSLTSEDSAVYYCAGGLRRVNWFAYWGQGTLVSVSAAKTTPPSVYPLAPGSAAQTNSMVTLG
VL: QAVLTQESALTTSPGETVTLTCRSSTGAVTTSNYANWVQEKPDHLFTGLIGGTNNRVPGVPARFSGSLIGDKAALTITGAQTEDEAIYFCVLWHSNHWVFGGGTKLTVL
modifications: heavy chain mAb 72A1; light chain mAb 72A1

Legend:
[1] = system: EBV gp350 20-mer linear peptides (gp350 regions); assay type: binding, Epstein-Barr virus; settings: 10 μg/ml mAb, 10 μg/ml peptide
Protocol: (§1) Forty-five sequential 20-mer linear peptides, covering the whole sequence of gp350 (GenBank: NC_007605.1), with an exception of aa 862-881, were synthesized using a solid phase method and cleaved using a low-high hydrogen fluoride method by the GenicBio, as previously described (58).
(§2) The binding of anti-gp350 mAbs to 45 synthesized 20-mer sequential peptides covering the total length of gp350 was analyzed using indirect ELISA as described (58). Briefly, immunoplates were coated with 50 μl of 10 μg/ml EBV gp350 peptides (forty-five 20-mers) diluted in PBS and incubated overnight at 4° C.; 0.5 μg/ml recombinant EBV gp350 ectodomain protein was used as a positive control. After washing three times with washing buffer (PBS containing 0.05% (v/v) Tween 20), plates were blocked with 100 μl washing buffer containing 3% BSA (blocking buffer), incubated for 1 hour at room temperature, and washed as above. Ten μg/ml purified mAbs were added to each well in triplicate and incubated for 2 hours at room temperature. […] The plates were washed as described above, followed by incubation with goat anti-mouse IgG or goat anti-human IgG HRP-conjugated secondary antibody (1:2,000 diluted in PBS) at room temperature for 1 hour. The plates were washed again and the chromogenic substrate ABTS was added. The reaction was stopped using ABTS peroxidase stop solution. The absorbance was read at an optical density of 405 nm using an ELISA plate reader.
(§3) The peptide library, consisting of 20-mer peptides, covered the entire gp350 protein, with the exception of AA 862-881 (Table 9).
(§4) Purified recombinant gp350 ectodomain was used as a control to validate the binding activity for all of the antibodies used. The overall gp350 sequence was divided into nine different regions consisting of ˜100 AA (FIG. 7).

[2] = system: EBV-eGFP infection of Raji cells; assay: EBV neutralization assay in Raji cells; assay type: cell-based, Epstein-Barr virus; settings: for EBV neutralization, summary statement: as stated in Example 8; for blocking of EBV infection of Raji cells (in words) / blocking of EBV infection of Raji cells (nAb activity): protein G and size-exclusion chromatography-purified mAbs; for blocking of EBV infection of Raji cells (in words) / neutralization of EBV in Raji cells: 12.5-100 μg/ml; for neutralization of EBV in Raji cells (in words): spin-column purified mAbs, 12.5, 25, 50 and 100 μg/ml; for blocking of EBV infection of Raji cells (nAb activity): lowest concentration 12.5 μg/ml; for neutralization of EBV in Raji cells: spin-column purified mAbs
Protocol: EBV neutralization assay was performed in Raji cells as previously described (47). Briefly, purified individual anti-gp350 mAbs were incubated with purified AGS-EBV-eGFP (titer calculated to infect at least 8% of HEK293 cells seeded in 100 μl of serum-free DMEM) for 2 hours at 37° C. To represent EBV infection of B cells, the pre-incubated anti-gp350 mAbs/AGS-EBV-eGFP were used to infect 5×10^5 Raji cells seeded in a 96-well plate for 2 hours at 37° C. Neutralizing 72A1 and non-neutralizing 2L10 anti-gp350 mAbs served as positive and negative controls, respectively. Infected cells were washed three times with PBS to remove any unbound viruses and antibodies. Washed, infected cells were incubated in 96-well plates at 37° C. for 48 hours post-infection and the number of eGFP+ (infected) cells was determined using flow cytometry. All dilutions were performed in quintuplicate and the assays were repeated three times. Antibody EBV neutralization activity was calculated as: % neutralization=(EBValone−EBVmAb)/(EBValone)×100.
However, this antibody was recently reported to be a mixture of both functional and non-functional antibodies (50). […] The percentage of eGFP+ cells (percent infection) was determined using flow cytometry as described (47). The nAbs 72A1 and E1D1 were used as positive controls, whereas the anti-gp350 non-neutralizing mAb 2L10 and KSHV gH/gL mAb 54A1 were used as negative controls. Because HB4, HB13, HB15, HB16, HB19, HB21, and HB23 were confirmed to be polyclonal based on isotyping and/or sequence data, they were eliminated from further consideration in the neutralization assay. HB18 was not used in neutralization experiments because it was identical to HB8.
The purified eGFP-tagged-EBV was titered in Raji cells to determine percent EBV infection using a range of volumes (50-250 μl) (FIG. 5A). Then initial neutralization of EBV was conducted in Raji cells using purified mAbs at various concentrations (12.5, 25, 50, and 100 μg/ml).
EBV-eGFP+ cells were enumerated using flow cytometry.

goat anti-human IgG = assay: ELISA for reactivity to anti-human IgG (HAMA testing); assay type: binding; settings: 10 μg/ml antibody on gp350-coated plates
From the text: (§5) ClustalW alignment of heavy chain (i) and light chain (ii) variable region amino acid sequences. Murine 72A1 heavy chain and light chain AA sequences are represented by SEQ ID NOs: 178 and 179, respectively, and humanized 72A1 heavy chain and light chain AA sequences are represented by SEQ ID NOs: 180 and 181, respectively. Regions of identical sequence are represented by *. Regions of similarity are represented by :. […] FIG. 4C: ELISA determining the reactivity of humanized 72A1 to murine IgG. Soluble EBV gp350 protein was used as the target antigen at 0.5 μg/ml. […] Bound antibodies were detected using HRP-conjugated anti-mouse IgG or anti-human IgG (1:2,000). […] Unstained cells and cells stained with secondary goat anti-mouse or anti-human conjugated to AF488 alone were used as negative controls.
(§6) ELISA was performed to determine the reactivity of chimeric and humanized antibodies to murine IgG. Soluble EBV gp350 or gH/gL protein was used as the target antigen at 0.5 μg/ml. […] Bound antibodies were detected using HRP-conjugated anti-mouse IgG or anti-human IgG (1:2,000). […] To determine whether chimeric and humanized anti-gp350 retained the ability to recognize linear epitopes on gp350, lysate from CHO WT cells and CHO cell stably expressing gp350 were analyzed by western blot analysis.

goat anti-mouse IgG = assay: ELISA for reactivity to anti-mouse IgG (HAMA testing); assay type: binding; settings: 10 μg/ml antibody on gp350-coated plates
From the text: as §5, §6

[3] = target: T1, EBV gp350 20-mer linear peptides (gp350 regions) (Epstein-Barr virus, UniProt P03200); assay type: binding
T1 construct: purchased GenicBio; host or cells: chemical solid-phase synthesis
T1 sequence (P03200 142-161): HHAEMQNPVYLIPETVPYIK
Protocol: as §1, §2, §3, §4

EBV [4] = settings: SCID mice with PBMC from EBV-naïve donors; cited from earlier work
EBV [5] = settings: small phase 1 clinical trial; cited from earlier work

Molecule	binding to gp350 region AA 102-201 (linear peptides) [1]	EBV neutralization, summary statement [2]	blocking of EBV infection of Raji cells (in words) [2]	neutralization of EBV in Raji cells (in words) [2]	blocking of EBV infection of Raji cells (nAb activity) [2] [%]	neutralization of EBV in Raji cells [2]	reactivity to goat anti-human IgG over the background (goat anti-human IgG) [fold]	reactivity to goat anti-mouse IgG above the background (1×PBS) (goat anti-mouse IgG)	recognition of gp350 peptides of the principal neutralizing epitope (142-161) [3]	protection against EBV and development of EBV+ tumors or PTLD-like lesions (EBV [4])	reactivity to goat-anti-mouse IgG as compared to goat anti-human IgG (goat anti-mouse IgG) [fold]	patients developing a hypersensitivity reaction (EBV [5])	patients who developed human anti-mouse Abs (HAMA) (EBV [5])	short-term protection against acquiring EBV after transplantation (EBV [5])
B1	bound	one of the best nAb	blocked EBV infection in a dose-dependent manner	failed to neutralize EBV infection										
B2	bound	non-neutralizing	blocked EBV infection in a dose-dependent manner	dose-dependent neutralization	90	60-80%								
B3	bound				98		2100	did not react at all	recognized both native gp350 as well as gp350 peptides that constitute the principal gp350 neutralizing epitope (142-161)					
B4	bound		blocked EBV infection in a dose-dependent manner	dose-dependent neutralization										
B5	bound			dose-dependent neutralization	93	35-80%		28 fold		completely protected	9	one	all 4	3 out of 4
